Data as given in the Human Domainome abundance scans (Beltran et al. 2025).

B1: POU domain, class 3, transcription factor 4, residues 280 to 335; numbered along this chain, P49335 (parent)
chain: KKRTSIEVSVKGVLETHFLKCPKPAAQEISSLADSLQLEKEVVRVWFCNRRQKEKR

Variants of: B1
Test: abundance fitness (aPCA) (normalised: wild type 0, dead -1); higher = more abundant; growth selection in yeast, the domain comes from the species named
Settings: Homo sapiens

Abundance fitness of substitutions, site by site:
S9: N 0.52; V -0.173; L -0.24; P -0.335; T 0.008; M -0.392; K 0.237
A26: W -0.05; P 0.149; L -0.07; K -0.415; E 0.385; I -0.168; D 0.396; T -0.017; V -0.254; G -0.37; F -0.451; N -0.043; C -0.211; H -0.237; Y -0.254; S -0.095; M 0.108
T16: P -0.839; G 0.041; Q 0.044; S 0.217; R 0.059; N -0.223; I -0.428; C -0.283; K 0.572; A 0.197; Y -0.306; L -0.304; M -0.214; E 0.368; V -0.504; D 0.157; W -0.347
K20: G -0.69; H -0.693; V -0.429; S -0.479; Y -0.788; C -0.735; P -0.805; Q -0.578; L -0.446; N -0.475; I -0.574; W -0.832; M -0.812; F -0.344; T -0.129; A -0.339; R -0.386
A25: Q 0.045; T 0.495; I -0.297; P -0.31; F -0.769; D 0.545; M -0.073; R -0.088; H -0.096; S 0.457; C 0.18; K -0.015; W -0.764; L -0.262; G 0.313; V -0.476
E28: I -0.47; S -0.692; N -0.123; H -0.63; L -0.357; C -0.569; M -0.355; Q -0.432; K -0.713; V -0.398; P -0.352; Y -0.382; W -0.484; A -0.657; D -0.3; F -0.732; G -0.886; T -0.411
Q27: P -0.761; H -0.074; K -0.157; M -0.344; T -0.335; C -0.16; D 0.147; W -0.295; A 0.078; R -0.054; G -0.172; V -0.434
P22: E -0.702; D -0.363; T -0.796; K -0.315; Y -0.949; M -0.553; V -0.469; F -0.732; C -0.502; I -0.606; S -0.427; W -0.166; Q 0.208; H -0.513; L -0.783; G -0.909; R -0.37
S31: N 0.182; L -0.114; K 0.022; G -0.398; T 0.035; F -0.059; H 0.219; V 0.013; Q -0.031; R 0.29; M 0.096; P -0.913; I 0.004; E -0.058; C -0.414; W -0.467; A 0.006
I29: S -0.762
V13: Q 0.205; T -0.502; H -0.407; W -0.745; E -0.182; C -0.454; F -0.315; M 0.18; G -0.662; A -0.082; Y -0.354; R -0.215; L -0.02; I -0.235; S -0.038; D -0.518
E15: Y -1.23; S -0.845; T -0.82; A -0.539; W -1.04; D -0.998; H -0.873; N -0.885; R -0.985; P -0.659; C -0.947; F -0.681
